According to the supplement of paper PMC9112550, “Optimization of the antimicrobial peptide Bac7 by deep mutational scanning” (BMC Biology, 2022):
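Further: peptides expressed intracellularly from a pBAD plasmid library in pooled LB shake-flask culture, induced with 0.3% L-arabinose, DNA abundance read by NGS, three biological replicates, DESeq2 with apeglm shrinkage.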

Each sequence was assayed on Escherichia coli TOP10 (assay: shrunken log2 fold change of peptide-encoding DNA abundance (4.5 h post-induction vs induction); higher = less antimicrobial activity (less host growth inhibition)). Settings: time post-induction: 4.5 h; library: site-saturation at positions 5, 18, 19, 20.
RRIRMRPPRLPRPRPRPACMPRP was tested, and the “shrunken log2 fold change” value was 0.64.
In the case of RRIRPRPPRLPRPRPRPFWGPRP, the “shrunken log2 fold change” value is reported as -0.0925.
In the case of RRIRWRPPRLPRPRPRPFFAPRP, the “shrunken log2 fold change” value is reported as 0.367.
With RRIRPRPPRLPRPRPRPPLFPRP the “shrunken log2 fold change” value was 0.36.
For RRIRFRPPRLPRPRPRPINQPRP, the “shrunken log2 fold change” value was -0.694.
RRIRGRPPRLPRPRPRPIPHPRP was tested, and the “shrunken log2 fold change” value was 0.196.
In the case of RRIRWRPPRLPRPRPRPYPQPRP, the “shrunken log2 fold change” value is reported as -0.361.
For RRIRRRPPRLPRPRPRPFEQPRP, the “shrunken log2 fold change” value was 0.105.
In the case of RRIRDRPPRLPRPRPRPVKPPRP, the “shrunken log2 fold change” value is reported as -0.0934.
In the case of RRIRSRPPRLPRPRPRPGYSPRP, the “shrunken log2 fold change” value is reported as -0.407.
RRIRCRPPRLPRPRPRPSDAPRP was tested, and the “shrunken log2 fold change” value was -0.0145.
In the case of RRIRTRPPRLPRPRPRPTCEPRP, the “shrunken log2 fold change” value is reported as 0.125.
With RRIRFRPPRLPRPRPRPQGQPRP the “shrunken log2 fold change” value was -0.103.
For RRIRPRPPRLPRPRPRPIAAPRP, the “shrunken log2 fold change” value was 0.621.
With RRIRARPPRLPRPRPRPYAKPRP the “shrunken log2 fold change” value was 0.249.
In the case of RRIRCRPPRLPRPRPRPHGRPRP, the “shrunken log2 fold change” value is reported as 0.0979.
RRIRLRPPRLPRPRPRPRVAPRP was tested, and the “shrunken log2 fold change” value was 0.272.
In the case of RRIRMRPPRLPRPRPRPIAQPRP, the “shrunken log2 fold change” value is reported as 0.726.
RRIRTRPPRLPRPRPRPPESPRP was tested, and the “shrunken log2 fold change” value was -0.0298.
For RRIRHRPPRLPRPRPRPGACPRP, the “shrunken log2 fold change” value was 0.203.
For RRIRLRPPRLPRPRPRPLKVPRP, the “shrunken log2 fold change” value was -0.0503.
In the case of RRIRDRPPRLPRPRPRPCMHPRP, the “shrunken log2 fold change” value is reported as 0.175.
In the case of RRIRWRPPRLPRPRPRPNCSPRP, the “shrunken log2 fold change” value is reported as -0.162.
For RRIRKRPPRLPRPRPRPRFDPRP, the “shrunken log2 fold change” value was 0.19.
With RRIRNRPPRLPRPRPRPDLEPRP the “shrunken log2 fold change” value was 0.124.
RRIRGRPPRLPRPRPRPNNSPRP was tested, and the “shrunken log2 fold change” value was -0.114.
For RRIRCRPPRLPRPRPRPSEDPRP, the “shrunken log2 fold change” value was -0.112.
RRIRCRPPRLPRPRPRPRMMPRP was tested, and the “shrunken log2 fold change” value was -0.11.
RRIRIRPPRLPRPRPRPTRVPRP was tested, and the “shrunken log2 fold change” value was 0.167.
In the case of RRIRVRPPRLPRPRPRPEWMPRP, the “shrunken log2 fold change” value is reported as 0.0845.
In the case of RRIRTRPPRLPRPRPRPVIGPRP, the “shrunken log2 fold change” value is reported as 0.13.
RRIRHRPPRLPRPRPRPDFQPRP was tested, and the “shrunken log2 fold change” value was -0.00193.
In the case of RRIRVRPPRLPRPRPRPFYHPRP, the “shrunken log2 fold change” value is reported as -0.502.
For RRIRERPPRLPRPRPRPPQQPRP, the “shrunken log2 fold change” value was 0.00573.
In the case of RRIRNRPPRLPRPRPRPKSSPRP, the “shrunken log2 fold change” value is reported as -0.0182.
With RRIRLRPPRLPRPRPRPVSWPRP the “shrunken log2 fold change” value was 0.22.
In the case of RRIRRRPPRLPRPRPRPVSSPRP, the “shrunken log2 fold change” value is reported as 0.0647.
RRIRHRPPRLPRPRPRPTVFPRP was tested, and the “shrunken log2 fold change” value was -0.251.
With RRIRVRPPRLPRPRPRPVMMPRP the “shrunken log2 fold change” value was -0.938.
For RRIRQRPPRLPRPRPRPSMHPRP, the “shrunken log2 fold change” value was -0.0647.
RRIRNRPPRLPRPRPRPDGSPRP was tested, and the “shrunken log2 fold change” value was 0.0143.
In the case of RRIRERPPRLPRPRPRPYTCPRP, the “shrunken log2 fold change” value is reported as -0.398.
RRIRLRPPRLPRPRPRPTDKPRP was tested, and the “shrunken log2 fold change” value was -0.251.
RRIRQRPPRLPRPRPRPRNFPRP was tested, and the “shrunken log2 fold change” value was -0.0725.
In the case of RRIRHRPPRLPRPRPRPHATPRP, the “shrunken log2 fold change” value is reported as 0.0228.
With RRIRPRPPRLPRPRPRPVHWPRP the “shrunken log2 fold change” value was 0.00332.
For RRIRERPPRLPRPRPRPFQGPRP, the “shrunken log2 fold change” value was 0.0891.
RRIRKRPPRLPRPRPRPETWPRP was tested, and the “shrunken log2 fold change” value was 0.0991.
For RRIRLRPPRLPRPRPRPEHKPRP, the “shrunken log2 fold change” value was -0.0822.
RRIRARPPRLPRPRPRPCQNPRP was tested, and the “shrunken log2 fold change” value was 0.105.
With RRIRHRPPRLPRPRPRPRVRPRP the “shrunken log2 fold change” value was 0.0975.
With RRIRMRPPRLPRPRPRPAYHPRP the “shrunken log2 fold change” value was -0.157.
RRIRLRPPRLPRPRPRPASFPRP was tested, and the “shrunken log2 fold change” value was -0.0339.
With RRIRQRPPRLPRPRPRPALRPRP the “shrunken log2 fold change” value was -0.00883.
In the case of RRIRIRPPRLPRPRPRPRMIPRP, the “shrunken log2 fold change” value is reported as 2.5.
RRIRHRPPRLPRPRPRPTGCPRP was tested, and the “shrunken log2 fold change” value was -0.0228.
With RRIRFRPPRLPRPRPRPVMAPRP the “shrunken log2 fold change” value was -0.271.
RRIRERPPRLPRPRPRPAVSPRP was tested, and the “shrunken log2 fold change” value was 0.0433.
RRIRCRPPRLPRPRPRPEFMPRP was tested, and the “shrunken log2 fold change” value was 0.118.
For RRIRPRPPRLPRPRPRPQINPRP, the “shrunken log2 fold change” value was -0.122.
With RRIRGRPPRLPRPRPRPFLTPRP the “shrunken log2 fold change” value was 0.0427.
In the case of RRIRHRPPRLPRPRPRPAHKPRP, the “shrunken log2 fold change” value is reported as -0.0386.
For RRIRDRPPRLPRPRPRPYSNPRP, the “shrunken log2 fold change” value was -0.045.
In the case of RRIRRRPPRLPRPRPRPCNVPRP, the “shrunken log2 fold change” value is reported as 0.0391.
For RRIRARPPRLPRPRPRPSAPPRP, the “shrunken log2 fold change” value was 0.397.
In the case of RRIRTRPPRLPRPRPRPTLFPRP, the “shrunken log2 fold change” value is reported as -0.113.
For RRIRARPPRLPRPRPRPSYDPRP, the “shrunken log2 fold change” value was -0.52.
In the case of RRIRSRPPRLPRPRPRPMLLPRP, the “shrunken log2 fold change” value is reported as 3.53.
For RRIRHRPPRLPRPRPRPHGLPRP, the “shrunken log2 fold change” value was 0.15.
With RRIRWRPPRLPRPRPRPSSMPRP the “shrunken log2 fold change” value was -0.411.
In the case of RRIRPRPPRLPRPRPRPSCVPRP, the “shrunken log2 fold change” value is reported as -0.368.
With RRIRWRPPRLPRPRPRPDREPRP the “shrunken log2 fold change” value was -0.0009.
In the case of RRIRARPPRLPRPRPRPHQLPRP, the “shrunken log2 fold change” value is reported as 0.086.
For RRIRMRPPRLPRPRPRPKAYPRP, the “shrunken log2 fold change” value was 0.0225.
RRIRGRPPRLPRPRPRPEFYPRP was tested, and the “shrunken log2 fold change” value was 0.0687.
